Test results reported in patent CN112125974A (BIORAY LABORATORIES INC, dated 2020).
Blank lines part the entries; values can stand above or below the binder they belong to.

What was measured:
人BCMA(hBCMA)蛋白 (human) = 人BCMA(hBCMA)蛋白 (human) (UniProt Q02223); experiment: phage ELISA, 0.5 μg/ml hBCMA coated, phage supernatant, anti-M13-HRP
biotin-BCMA抗原 (human) = biotin-BCMA抗原 (human) (UniProt Q02223); experiment: flow cytometry, T cells 72 h after infection, 0.2 μg/ml biotin-BCMA, APC-Streptavidin
[1] = biological target: T1, BCMA on BCMA+ target cells (NCI-H929; K562-BCMA) (human, UniProt Q02223 1-184); experiment: cell-based or functional assay
T1 sequence (looked up): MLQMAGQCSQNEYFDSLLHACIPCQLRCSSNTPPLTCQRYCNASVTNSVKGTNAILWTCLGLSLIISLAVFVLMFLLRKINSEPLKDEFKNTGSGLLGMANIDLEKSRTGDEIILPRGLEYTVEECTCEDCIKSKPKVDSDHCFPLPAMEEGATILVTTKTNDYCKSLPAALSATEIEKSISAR

B1: 抗BCMA单链抗体2(命名为抗体2077) (scFv, V domains shown)
VH: QVQLQQSGPGLVKPSQTLSLTCAISGDSVSSNSAAWNWIRQSPSRGLEWLGRTYYRSKWYNDYAVSVKSRITINPDTSKNQFSLQLNSVTPEDTAVYYCARLAYEVRSTDWYFDLWGRGTLVTVSS
VL: QPVLTQPPSVSEAPRQRVTISCSGSSSNIGNNAVNWYQQLPGKAPKLLIYYDDLLPSGVSDRFSGSKSGTSASLAISGLQSEDEADYYCAAWDDSLNGWVFGGGTKLTVL
OD450 (人BCMA(hBCMA)蛋白 (human)): > 1.5 OD450

B3: 2073嵌合抗原受体 (CAR-BCMA-2073, on T cells CAR-BCMA-2073-T) (other)
chain: DIVMTQSPDSLAVSLGERATINCKSSQNVLYSSNNRNYLAWYQQKPGQPPKLLIYWASTRESGVPDRFSGSGSGTDFTLTISSLQAEDVAVYYCQQYYGSVVTFGGGTKVEIKGSTSGSGKPGSGEGSTKGQVQLQQSGPGLVKPSQTLSLTCAISGDSVSSNSAAWNWIRQSPSRGLEWLGRTYYRSKWYNDYALSVKSRITINPDTSKNQFSLQLNSVTPEDTAVYYCARGASSFDYWGQGTLVTVSSTTTPAPRPPTPAPTIASQPLSLRPEACRPAAGGAVHTRGLDFACDIYIWAPLAGTCGVLLLSLVITLYCKRGRKKLLYIFKQPFMRPVQTTQEEDGCSCRFPEEEEGGCELRVKFSRSADAPAYKQGQNQLYNELNLGRREEYDVLDKRRGRDPEMGGKPRRKNPQEGLYNELQKDKMAEAYSEIGMKGERRRGKGHDGLYQGLSTATKDTYDALHMQALPPR
CAR-BCMA阳性率 (percent of T cells stained by biotin-BCMA) (biotin-BCMA抗原 (human)): 45.1%
proportion of target cells K562-BCMA in total cells, co-culture E:T 7:1, 0 h [1]: 8.69%
proportion of target cells K562-BCMA in total cells, co-culture E:T 7:1, 48 h [1]: 6.1%
proportion of target cells NCI-H929 in total cells, co-culture E:T 5:1, end [1]: 0.435%
proportion of target cells NCI-H929 in total cells, co-culture E:T 5:1, start [1]: 15.4%

B4: 2079嵌合抗原受体 (CAR-BCMA-2079, on T cells CAR-BCMA-2079-T) (other)
chain: QSALTQPASVSGSPGQSITMSCTGTSSDVGGYKYVSWYQQHPGKAPQLMIHDVRERPSGVSNRFSGSKSGNTASLTISGLQAEDEADYYCSSFTNNSTFVFGTGTKVTVLGSTSGSGKPGSGEGSTKGQVQLQQSGPGLVKPSQTLSLTCAISGDSVSSNSAAWNWIRQSPSRGLEWLGRTYYRSTWYNDYAVSVKSRITINPDTSKNQFSLQLNSVTPEDTAVYYCARGTGTLDYWGQGTLVTVSSTTTPAPRPPTPAPTIASQPLSLRPEACRPAAGGAVHTRGLDFACDIYIWAPLAGTCGVLLLSLVITLYCKRGRKKLLYIFKQPFMRPVQTTQEEDGCSCRFPEEEEGGCELRVKFSRSADAPAYKQGQNQLYNELNLGRREEYDVLDKRRGRDPEMGGKPRRKNPQEGLYNELQKDKMAEAYSEIGMKGERRRGKGHDGLYQGLSTATKDTYDALHMQALPPR
CAR-BCMA阳性率 (percent of T cells stained by biotin-BCMA) (biotin-BCMA抗原 (human)): 22.3%
proportion of target cells K562-BCMA in total cells, co-culture E:T 7:1, 0 h [1]: 9.28%
proportion of target cells K562-BCMA in total cells, co-culture E:T 7:1, 48 h [1]: 8.69%
proportion of target cells NCI-H929 in total cells, co-culture E:T 5:1, end [1]: 6.63%
proportion of target cells NCI-H929 in total cells, co-culture E:T 5:1, start [1]: 11.3%

The remaining lines, values ahead:

OD450 (人BCMA(hBCMA)蛋白 (human)): > 1.5 OD450
B2: 抗BCMA单链抗体3(命名为抗体2079) (scFv, V domains shown)
VH: QVQLQQSGPGLVKPSQTLSLTCAISGDSVSSNSAAWNWIRQSPSRGLEWLGRTYYRSTWYNDYAVSVKSRITINPDTSKNQFSLQLNSVTPEDTAVYYCARGTGTLDYWGQGTLVTVSS
VL: QSALTQPASVSGSPGQSITMSCTGTSSDVGGYKYVSWYQQHPGKAPQLMIHDVRERPSGVSNRFSGSKSGNTASLTISGLQAEDEADYYCSSFTNNSTFVFGTGTKVTVL

OD450 (人BCMA(hBCMA)蛋白 (human)): > 1.5 OD450
B5: 抗BCMA单链抗体4(命名为抗体2082) (scFv, V domains shown)
VH: QVQLQQSGPALVKPSQTLSLTCVISGDSVSSNSASWTWIRQSPSRGLEWLGRTYRRADRWYYDYALSLNSRLTINPDTSKNHFALHLTSVTPEDTAVYYCSREYWGGSFDVWGQGTTVTVSS
VL: QPVLTQPASVSGSPGQSITISCTGTSSDVGGYDYVSWYQQHPGKAPKLMLYEVNNRPSGVSNRFSGSKSGNTASLTISGLQAEDEGAYYCSSYTSSNTHVVFGGGTQLTVL
